Self-cleavage data for 167 variants are collected here from the RNAGym collection of RNA variant scans (doi:10.7554/elife.90254).

First the molecules themselves.
B1: LINE1-full (parent)
chain: UACGUAGGUGGUUUUCCCCUGAUAGUGCUAAGGGGGCCUGGAAGUUUGGACUGGGCAGAGCUCAACACAGCGUGGCAAAGUGGCUGUGGCUAGACUGCCUCUCUGGAUUCCUCGUCACUCAGCAGGGCAUCUCUGAGAGAAAUGCC

This series covers variants of B1. Nature of the series: self-cleavage, relative activity (ratio to wild type); higher = more cleavage; in vitro, sequencing; the parent is a self-cleaving ribozyme.
Turning to G83A U130A, the self-cleavage was found to be 0.99. The result for C84U A129G reads 0.18; that for U81A G89A, 0; that for U85A G88A, 0.23.

U81C G105A: the self-cleavage is 1.06.

For C84U U112A, the self-cleavage amounted to 0.11. The result for A79G G83A reads 1.03; that for A79U U87A, 0.05.

Take G82A U87C: the self-cleavage was 0.17.

For U81G U100C, the self-cleavage amounted to 1.43. The result for U81C U102A reads 1.05; that for U81C U102C, 0.72. The result for A79G G88A reads 0.03. The result for U81A U96C reads 0.13; that for U81A U96A, 0.07; that for U81A G126U, 2.04. Regarding G80A U81C, the self-cleavage stood at 1.98. Turning to A79U U130C, the self-cleavage was 2.63. The result for C84U U100C reads 0.21; that for U81A G127A, 1.72; that for U81A C146U, 1.56. The result for G83A A94U reads 0.24; that for U81C U112A, 1.42; that for U85A C116U, 0.11. The result for U85A C116A reads 0; that for U81A U130C, 2.43; that for G83U U112C, 0.85.

Consider U81G A107G, for which the self-cleavage is 1.01. The result for U85A A94U reads 0.07.

On to G80A U96C, for which the self-cleavage turned out to be 0.18. The result for G83A U85C reads 0.09. Consider G83A U85G, for which the self-cleavage was 0.1. As for C84U A136U, the self-cleavage came to 0.13. The result for U81G reads 1.32; that for U81C, 1.37; that for U81A, 1.89. The result for A79G U109G reads 0.8; that for U85C A117G, 0.15; that for U85C A117U, 0.19. As to A79U A141G, the self-cleavage is 1.71. The result for A79U U132C reads 2.24. The result for A79U U132A reads 1.83; that for C84A U91C, 0.13. The result for U81A U115C reads 2.44; that for U81A U115A, 2.46. Turning to A79G A142G, the self-cleavage is 1.12. Regarding G83A U115C, the self-cleavage was determined as 1.47. The result for U81C U119A reads 1.59; that for A79G C133A, 1.12; that for G82A G114U, 2.07. The result for U85A U112C reads 0.04; that for U81C U130G, 1.84; that for U81C A142C, 1.18.

U81C A142G: the self-cleavage was found to be 1.38. The result for A79U A138G reads 1.76; that for G82U A92U, 0.43; that for U81C G86U, 0.13.

For U81C A138G, the self-cleavage came out at 1.14. The result for U85A C98U reads 0.09. With U85A C98G, the self-cleavage is 0.28. The result for U85A C98A reads 0.07. The result for U81C U104A reads 1.07; that for G83A A107G, 0.91.

In the case of A79G G93U, the self-cleavage is 0.06.

Regarding A79G G93A, the self-cleavage is 0.04. For U85A A121U, the self-cleavage came out at 0.07.

U85A U134A: the self-cleavage was found to be 0.06. As for U85A U134C, the self-cleavage came out at 0.13.

With A79G U132C, the self-cleavage was 1.43.

With A79G U132A, the self-cleavage was found to be 1.25. The result for A79G G106U reads 1.48; that for A79U A107G, 2.26. The result for G80A A117G reads 2.22. Turning to U81C A136G, the self-cleavage came to 1.12. The result for C84A U108A reads 0.12; that for G83U A124G, 0.36. The result for G80C A107G reads 1.52; that for A79U C111G, 2.75. For G82U U115C, the self-cleavage stood at 0.84. The result for U81C A94U reads 0.37. The result for U81C A94C reads 0; that for U81C A94G, 0.37.

U81C U100A: the self-cleavage amounted to 1.05. The result for A79G U96G reads 0.16; that for G82A G105A, 1.95; that for U81A U119C, 2.53. The result for U81A U119A reads 2.53. The result for G82A A94U reads 0.33; that for G82A A140G, 0.93; that for U85C A94U, 0.14. Take U85C A94G: the self-cleavage came out at 0.07. The result for G80C U132C reads 1.84.

Consider A79U C110A, for which the self-cleavage is 1.64. The result for A79G U85A reads 0.08; that for A79G U85G, 0.11; that for A79G U85C, 0.11. The result for A79G U87C reads 0.17; that for A79G U87A, 0.06. The result for G83A U104C reads 0.95; that for U81G U119C, 1.54; that for U85C C98U, 0.01. Take U81G U134A: the self-cleavage was found to be 1. The result for G80U U130C reads 0; that for U81C C90U, 0.03. The result for U81C U132C reads 1.61; that for U85A U143C, 0.11.

U85A U143A: the self-cleavage was determined as 0.08. The result for U81C C116U reads 1.14. The result for U81C C116A reads 0.59.

For U85A U130C, the self-cleavage came out at 0.1.

As for U85A U130A, the self-cleavage is 0.1.

In the case of G82A A124G, the self-cleavage turned out to be 1.3.

Take A79G U143A: the self-cleavage amounted to 1.52. As for A79G C99U, the self-cleavage amounted to 0.38. The result for U85A C99G reads 0.05. Consider G83A A138G, for which the self-cleavage is 0.73.

Consider G83A G97C, for which the self-cleavage worked out at 0.18. The result for A79U U104C reads 2.47; that for C84U A138G, 0.13. The result for C84U U143C reads 0.1; that for G80U U109C, 1.21; that for U85A C113U, 0.06.

With G80U U87C, the self-cleavage turned out to be 0.2. The result for G80U U87A reads 0.08; that for G83A U108C, 0.56. Take U81G A117U: the self-cleavage was 1.32. The result for A79G U100C reads 1.46; that for C84G G93A, 0.08. The result for G80U G144A reads 1.57; that for U81A C103U, 0.63; that for U81A C103A, 1.98.

With A79G U112C, the self-cleavage amounted to 1.74. The result for G83C A117G reads 0.76; that for U81A U143C, 1.95. The result for U81G A92G reads 0.24; that for C84G U100C, 0.07. The result for U81A G88A reads 0.06; that for A79G U102G, 0.49; that for A79U A140G, 1.85. On to U85A U100C, for which the self-cleavage is 0.21. The result for U81G A140G reads 1.4.

As to U81C G83A, the self-cleavage turned out to be 1.46.

Turning to G80A A124G, the self-cleavage turned out to be 1.

Regarding U85A U132C, the self-cleavage was found to be 0.09.

In the case of C84A U100C, the self-cleavage stood at 0.14. Take U81G U104A: the self-cleavage stood at 1.23. Take A79G G89C: the self-cleavage came to 0.05. The result for A79G G89A reads 0.03; that for A79G C120G, 1.08; that for A79G C120U, 1.26.

On to U85A U119C, for which the self-cleavage is 0.09. The result for C84U A94G reads 0.04; that for A79U G135C, 2.76. The result for U81C U143A reads 1.22; that for U81A A142G, 2.07; that for G82A U108C, 2.48. The result for U85A G105A reads 0.04; that for A79U U91A, 0.58; that for U85C A92G, 0.28. As to A79U G89U, the self-cleavage stood at 0.03. The result for A79U G89C reads 0.02; that for G83U, 0.86; that for G83C, 0.87. The result for G83A reads 0.86; that for U85C G105A, 0.12; that for U85A A124G, 0.04. The result for U85A A124C reads 0.08.
